According to patent US20210079109A1 (Regeneron, published 2021):

T1: human CD63 (human, UniProt P08962 2-238)
T1 construct: stably transfected in NIH3T3/hCD63; The cell line is named under assay; also called hCD63
T1 sequence: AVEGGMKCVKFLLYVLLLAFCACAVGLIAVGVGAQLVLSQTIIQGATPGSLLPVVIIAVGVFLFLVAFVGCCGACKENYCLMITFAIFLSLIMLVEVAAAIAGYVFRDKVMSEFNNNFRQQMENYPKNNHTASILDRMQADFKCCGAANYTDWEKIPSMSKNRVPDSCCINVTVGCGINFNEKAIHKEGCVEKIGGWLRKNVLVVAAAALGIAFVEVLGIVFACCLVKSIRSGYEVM


Key:
[1] = target: T2, recombinant human CD63 extracellular loop 2 expressed with a C-terminal Myc-Myc-hexahistidine (human); experiment: SPR Biacore, mAb captured, 37C
T2 construct: also called hCD63 EC loop 2-MMH; human CD63 EC loop 2-MMH
T2 sequence (chain, as listed by the source limits assumed): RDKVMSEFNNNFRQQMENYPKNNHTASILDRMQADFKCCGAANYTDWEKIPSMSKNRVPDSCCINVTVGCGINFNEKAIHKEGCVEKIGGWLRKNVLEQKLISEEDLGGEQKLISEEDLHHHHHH
Procedure, shortened: (§1)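 Anti-CD63 mAbs captured on anti-mouse Fc or anti-human Fab surfaces; CD63 EC2 reagents flowed in HBS-ET, pH 7.4, at 25° C or 37° C. ka and kd from 1:1 binding model with mass transport limitation; KD and t½ calculated from kinetic rates.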

[2] = target: T3, recombinant human CD63 extracellular loop 2 expressed with a C-terminal human Fc tag (human); experiment: SPR Biacore, mAb captured, 37C
T3 construct: also called hCD63 EC loop 2-hFc; human CD63 EC loop 2-Fc
T3 sequence (chain, as listed by the source limits assumed): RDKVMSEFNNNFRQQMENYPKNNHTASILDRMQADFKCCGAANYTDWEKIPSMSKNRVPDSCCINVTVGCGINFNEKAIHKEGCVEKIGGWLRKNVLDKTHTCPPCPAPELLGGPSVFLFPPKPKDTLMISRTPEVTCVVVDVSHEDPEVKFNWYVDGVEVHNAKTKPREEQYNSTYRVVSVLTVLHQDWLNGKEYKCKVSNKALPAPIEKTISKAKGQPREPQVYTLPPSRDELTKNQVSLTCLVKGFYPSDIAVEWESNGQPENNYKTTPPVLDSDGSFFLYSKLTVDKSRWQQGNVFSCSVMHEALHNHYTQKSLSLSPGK
Procedure, shortened: as §1

[3] = target: T1, human CD63; experiment: ECL, LNCAP cells; LNCAP cells (lower CD63 copy number), ratio at 3.7 nM Ab: non-binder
Protocol: (§2) LNCAP cells were determined to have a lower human CD63 copy number than U87MG cells. Non-transfected NIH3T3 cells, which have no detectable expression of human CD63 by fluorescence activated cell sorting (FACS), were included as a negative control.
(§3) Briefly, cell lines were rinsed once in PBS buffer without Ca²⁺/Mg²⁺ and incubated for 10 minutes at 37° C. with Enzyme Free Cell Dissociation Solution (Millipore, Cat #S-004-C) to detach the cells. Cells were then washed once with PBS with Ca²⁺/Mg²⁺ and counted with a Cellometer™ Auto T4 cell counter (Nexcelom Bioscience, LLC). Approximately 2.0×10⁴ NIH3T3/hCD63, LNCAP, U87MG or NIH3T3 cells were seeded separately onto 96-well carbon electrode plates […]) and were then incubated for one hour at 37° C. Nonspecific binding sites were blocked with 2% BSA (w/v) in PBS with Ca²⁺/Mg²⁺ for one hour at room temperature (RT). […] Plates were washed and then incubated with Read Buffer (MSD, Cat #R92TD-2) according to the manufacturer's instructions. Luminescent signals were measured using a SECTOR Imager (MSD).

[4] = target: T1, human CD63; experiment: ECL, NIH3T3/hCD63 cells; NIH3T3/hCD63 cells, ratio at 3.7 nM Ab: binds
Protocol: as §2, §3

[5] = target: T1, human CD63; experiment: ECL, U87MG cells; U87MG cells (endogenous CD63), ratio at 3.7 nM Ab: binds, EC50 inconclusive
Protocol: as §2, §3

[6] = target: T2, recombinant human CD63 extracellular …; experiment: SPR Biacore, mAb captured, 25C
Procedure, shortened: as §1

[7] = target: T3, recombinant human CD63 extracellular …; experiment: SPR Biacore, mAb captured, 25C
Procedure, shortened: as §1

[8] = target: T1, human CD63; experiment: ECL, NIH3T3/hCD63 cells; NIH3T3/hCD63 cells (engineered, CD63 overexpressed): binds
Protocol: as §2, §3

[9] = target: T1, human CD63; experiment: ECL, NIH3T3/hCD63 cells
Procedure, shortened: (§4)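 Detached cells (~2.0×10⁴/well: NIH3T3/hCD63, LNCAP, U87MG, or parental NIH3T3 as negative control) were plated on carbon-electrode plates and blocked with 2% BSA. Anti-CD63 or isotype antibodies (1.7 pM–100 nM, in duplicate) were bound 1 h at RT, then washed. Signal read as electrochemiluminescence.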

[10] = target: T1, human CD63; experiment: ECL, U87MG cells
Procedure, shortened: as §4

[11] = target: T1, human CD63; experiment: ECL, LNCAP cells
Procedure, shortened: as §4

[12] = target: T1, human CD63; experiment: cell-based or functional assay
[13] = target: T1, human CD63; experiment: imaging of stained T47D cells, 10 ug/mL antibody
Protocol: To stain, quadruplicate plates of cells were incubated with 10 μg/mL of anti-CD63 antibodies that was diluted in 2% FBS in PBS, without Calcium and Magnesium (Irving, Cat #9240) (staining buffer) for 30 minutes at 4° C. […] Two plates were immediately fixed and stained with 4% paraformaldehyde (PFA; ThermoFisher, Cat #28908)+5 uM DRAQ5 (ThermoFisher, Cat #62251) in PBS for 20 minutes (non-internalization plates). The remaining two plates were incubated with growth media at 37° C. for 2 hours followed by fixation and staining for 20 minutes using a solution of 4% PFA+5 μM DRAQ5 diluted in PBS (internalization plates). After fixation, all plates were washed once with PBS. One non-internalization plate and one internalization plate were incubated with an anti-Alexa Fluor 488 antibody (Regeneron) at 50 μg/mL in PBS overnight at 4° C. to quench surface Alexa Fluor 488 fluorescence. The remaining plates were incubated with PBS only. Confocal images were acquired on the Opera Phenix (Perkin Elmer) at 40× magnification. Harmony analysis software (Perkin Elmer) was utilized to identify DRAQ5-labeled cells and the total Alexa-Fluor 488 relative fluorescent units (RFU) per cell was determined. The total binding at 4° C. (RFU values of 4° C. unquenched wells), total binding at 37° C. (RFU values of 37° C. unquenched wells), the total internalized RFU, and the % Internalization were determined for each antibody as shown in Table 1. For all calculations, background fluorescence from 2nd Ab only control wells were subtracted from every well. Total internalized RFU was calculated as follows: Total RFU of 37° C. unquenched samples−Surface RFU at 37° C. Surface RFU is defined as unquenched RFU at 37° C.−quenched RFU at 37° C.)/QE. QE (quenching efficiency) is defined as: 1−(Total RFU of 4° C. quenched sample/Total RFU of 4° C. unquenched sample). The % Internalization was determined from the following formula: (Total internalized RFU at 37° C./Total RFU at 37° C.)*100.

| 100 nM Ag Bound (RU) [1] | Kd [1] | koff [1] | kon [1] | t1/2 [1] | 100 nM Ag Bound (RU) [2] | Kd [2] | koff [2] | kon [2] | t1/2 [2] | 100 nM Ag Bound (RU) [6] | Kd [6] | koff [6] | kon [6] | t1/2 [6] | 100 nM Ag Bound (RU) [7] | Kd [7] | koff [7] | kon [7] | t1/2 [7] | Binder | further results |
| --- | --- | --- | --- | --- | --- | --- | --- | --- | --- | --- | --- | --- | --- | --- | --- | --- | --- | --- | --- | --- | --- |
| 3 RU | 174 nM | 0.0917 s⁻¹ | 528000 M⁻¹ s⁻¹ | 0.1 min | 111 RU | 6.5 nM | 0.00207 s⁻¹ | 318000 M⁻¹ s⁻¹ | 6 min | 11 RU | 11700 nM | 0.0309 s⁻¹ | 2640 M⁻¹ s⁻¹ | 0.4 min | 136 RU | 2.58 nM | 0.000453 s⁻¹ | 175000 M⁻¹ s⁻¹ | 26 min | H4H11998P2 (antibody, V domains shown) VH: QVQLVESGGGLVKPGGSLRLSCAASGFSFSDYYITWIRQAPGKGLEWVSYINTGGYTMYYADSVKGRFTISRDNAKNSLYLQMNNLRAEDTAVYYCTRDRRYNFGLDYWGQGTLVTVSS VL: not shown | binding ratio at 3.7 nM vs NIH3T3 [3]: 1 fold; binding ratio at 3.7 nM vs NIH3T3 [4]: 14 fold; binding ratio at 3.7 nM vs NIH3T3 [5]: 5 fold; EC50 [8]: 7.4 nM |
| 38 RU | 35.6 nM | 0.0149 s⁻¹ | 419000 M⁻¹ s⁻¹ | 1 min | 134 RU | 0.546 nM | 0.000495 s⁻¹ | 907000 M⁻¹ s⁻¹ | 23 min | 54 RU | 10.4 nM | 0.00336 s⁻¹ | 323000 M⁻¹ s⁻¹ | 3 min | 150 RU | 1.89 nM | 0.000991 s⁻¹ | 523000 M⁻¹ s⁻¹ | 12 min | H1M12390N (antibody, V domains shown) VH: QVHLVESGGGLVKPGGSLRLSCAASGFIFSDYYMSWIRQAPGKGLEWVSYIRGSGYNADSVQGRFTISRDNAKNSLFLQMNSLRAEDTAVYYCARGYSFGYGFFDYWGQGTLVTVSS VL: not shown | EC50 [9]: 0.48 nM; binding ratio at 3.7 nM vs NIH3T3 [9]: 559 fold; EC50 [10]: 0.36 nM; binding ratio at 3.7 nM vs NIH3T3 [10]: 339 fold; EC50 [11]: 0.3 nM; binding ratio at 3.7 nM vs NIH3T3 [11]: 31 fold |
| 44 RU | 40 nM | 0.0109 s⁻¹ | 271000 M⁻¹ s⁻¹ | 1 min | 133 RU | 2.05 nM | 0.0017 s⁻¹ | 827000 M⁻¹ s⁻¹ | 7 min | 48 RU | 10.3 nM | 0.00331 s⁻¹ | 322000 M⁻¹ s⁻¹ | 3 min | 121 RU | 1.66 nM | 0.000984 s⁻¹ | 592000 M⁻¹ s⁻¹ | 12 min | H2M12385N (antibody, V domains shown, also called H2bM12385N; H2bM12385) VH: QVQLVESGGGLVKPGGSLRLSCAASGFTFTDYFMNWIRQAPGKGLEWVSYISNSGAIKYQADSVKGRFTISRDNAKNSLYLQMNSLRADDTAVYYCVRDPRSYYGFDYWGQGTLVTVSS VL: DIQMTQSPSSLSASVGDRVTITCRASQSIRNFLNWYQQKPGKAPRLLIYAASSLQSGVPSRFSGGGSGTDFTLTISSLQPEDFATYYCQQSYSNPPITFGQGTRLEIK | EC50 [9]: 0.45 nM; binding ratio at 3.7 nM vs NIH3T3 [9]: 71 fold; EC50 [10]: 0.64 nM; binding ratio at 3.7 nM vs NIH3T3 [10]: 47 fold; EC50 [11]: 0.29 nM; binding ratio at 3.7 nM vs NIH3T3 [11]: 5 fold |
|  |  |  |  |  |  |  |  |  |  |  |  |  |  |  |  |  |  |  |  | H4H12450N (antibody, V domains shown) VH: QVQLQESGPKVVKPSETLSLTCTVSGGSISSYYWNWIRQSPGKGLEWIGYTKRGYTDYNPSLRSRVTISEDTSKNQFSLRISSVTAADTAVYYCAQMGWGSHAFDMWGQGTMVAVSS VL: not shown | % Internalization, T47D cells [12]: 68.1%; Total Internalized RFU, T47D cells [12]: 1.42e+06 RFU; Total RFU at 4C [13]: 2.1e+06 RFU; Total RFU at 37C (2 h) [13]: 2.08e+06 RFU |
